Measurements taken from patent US20240301076A1 (CEPHALON, published 2024).
Residue numbers refer to the chain shown, from its start. Numbers in names are those of the source.

T1: human CXCR2 (human, UniProt P25025 1-360)
T1 construct: also called CXC chemokine receptor 2; hCXCR2
T1 sequence: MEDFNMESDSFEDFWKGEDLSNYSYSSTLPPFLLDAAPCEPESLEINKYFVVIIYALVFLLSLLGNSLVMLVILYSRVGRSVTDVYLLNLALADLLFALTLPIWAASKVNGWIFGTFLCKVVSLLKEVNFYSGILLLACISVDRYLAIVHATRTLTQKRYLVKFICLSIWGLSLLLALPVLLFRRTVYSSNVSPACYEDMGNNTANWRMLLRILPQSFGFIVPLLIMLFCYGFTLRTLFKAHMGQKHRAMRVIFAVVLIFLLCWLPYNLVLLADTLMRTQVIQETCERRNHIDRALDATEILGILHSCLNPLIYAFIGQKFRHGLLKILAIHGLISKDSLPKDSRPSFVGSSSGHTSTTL

T2: human CXCR1 (human, UniProt P25024 1-350)
T2 sequence: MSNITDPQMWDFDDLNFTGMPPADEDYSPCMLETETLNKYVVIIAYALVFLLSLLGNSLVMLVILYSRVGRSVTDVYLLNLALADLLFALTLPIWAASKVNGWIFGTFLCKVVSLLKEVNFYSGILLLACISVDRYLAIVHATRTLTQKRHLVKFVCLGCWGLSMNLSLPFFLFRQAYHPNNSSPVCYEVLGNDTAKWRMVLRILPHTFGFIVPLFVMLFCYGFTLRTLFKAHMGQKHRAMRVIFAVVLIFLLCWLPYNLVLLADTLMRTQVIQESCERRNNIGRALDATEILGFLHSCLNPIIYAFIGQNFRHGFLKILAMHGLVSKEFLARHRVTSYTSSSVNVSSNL

B1: BKO-7G10_a (antibody, human IgG4 S228P, lambda, V domains shown)
VH: EVQLLESGGGLVQPGGSLRLSCAVSGFTFSNYAMTWVRQAPGKGLEWVSAISGRGSRTYYADSVKGRFTISRDTSKNTLYLQMNSLRAEDTAVYYCAKMDYWGQGTLVTVSS
VL: QSALTQPPSASGSPGQSVTISCTGTSSDVGGYNYVSWYQQHPGKAPKLMIFEVSKRPSGVPDRFSGSKSGNTASLTVSGLQAEDEADYYCSSYAGSNNFGVFGGGTKLTVLG
notes: recombinant human IgG4 S228P, lambda
B2: BKO-5G11 (antibody, human IgG4 S228P, lambda, V domains shown)
VH: B1 VH
VL: B1 VL
notes: as for B1
B3: BKO-7H8_b (antibody, human IgG4 S228P, lambda, V domains shown)
VH: EVQLLESGGGLVQPGGSLRLSCAASGYTFTSSTMSWVRQAPGKGLEWVTAISGRGGRTYYADSVKGRFTISRDNSKNTLYLQMNSLRAEDTAVYYCAIQLGNWGQGILVTVSS
VL: B1 VL with V29I, M49V, F51Y, S54N, K55M, D62A, S96N, N97D, T109S
notes: as for B1
B4: BKO-9A8 (antibody, human IgG4 S228P, lambda, V domains shown)
VH: B3 VH with P14T, Y27F, T30S, S32N, T49S, R54S, A61V, N84H, N102S
VL: B1 VL with G31A, F51Y, S54T, S96N
notes: as for B1
B5: BKO-8B6 (antibody, human IgG4 S228P, lambda, V domains shown)
VH: EVQLLESGGGLVQPGGSLRLSCAASGFTFSSNAMSWVRQAPGKGLEWVSAISNSGRSTYYADSVKGRFTISRDSSKNTLYLLMNSLRAEDSAVYYCAIKLGYWGQGSLVTVSS
VL: B1 VL with I50M, F51Y, N97D, K107R
notes: as for B1
B6: BKO-5E8 (antibody, human IgG4 S228P, lambda, V domains shown)
VH: EVQLLESGGGLVQPGGSLRLSCAASGFTFSSYAMSWVRQAPGRGLEWVSAIRGSGAGTYYADSMKGRFTISRDNSKDTLYLLMNSLRAEDTAVYYCSKLEAVSGTGKYFQHWGQGTLVTVSS
VL: SYELTQPPSVSVSPGQTANITCSGDTLGDKFACWYQQKPGQSPVLVIYQDTKRPSGIPERFSGSKSGITATLTISGTQAMDEADFYCQAWNSRGVVFGGGTRLTVLG
notes: as for B1
B7: BKO-10G10 (antibody, human IgG4 S228P, lambda, V domains shown)
VH: QLQLQESGPGLVKPSETLSLTCTVSGGSIRRSSYYWGWIRQPPGKGLEWIGSFYNSGNTYYKPSLKSRVAISVDTPKNQFSLKLSSVTAADTAVYYCARGYSSGGFDPWGQGTLVTVSS
VL: QSALTQPASVSGSPGQSITISCTGTSSDVGGYNYVSWCQQHPGKAPKIMIFDVSNRPSGVSNRFSGSKSGNTASLTISGLQAEDEADYYCSSYTSSSTWVFGGGTRLTVLG
notes: as for B1
B8: BKO-6A1_b (antibody, human IgG4 S228P, lambda, V domains shown)
VH: QVQLKQWGAGLLKPSETLSLTCAVYGGSFSGYYWTWIRQPPGKGLEWIGEINHSGSTNYNPSLKSRVTMSVDTSKNQFSLKLRSVTAADTAVYYCARGEVRGLITLYWYFDVWGRGSLVTVSS
VL: SSELTQDPAVSVALGQTVRITCQGDSLRSYYASWYQQKPGQAPVLVIYGKNNRPSGIPDRFSGSSSGNTASLTITGAQAEDEADYYCNSRDSSGNHVVFGGGTKLTVLG
notes: as for B1
B9: BKO-8C4 (antibody, human IgG4 S228P, lambda, V domains shown)
VH: QLQLQESGPGLVKPSETLSLTCTVSGGSIRTSSYYWGWIRQPPGKGLEYIGSIYYSGTTYYNPSLKSRVTMSVDTSKNQFSLKLSSVTAADTAVYYCARHGRVREVPPFDYWGQGTLVTVSS
VL: B8 VL with S29Y, G49D, K50E, N52S, T73R, A77T, S92T, V97W, V98A
notes: as for B1
B10: BKO_7C11 (antibody, human IgG4 S228P, lambda, V domains shown)
VH: B8 VH with K5Q, T35S, G55R, S56N, M69I, R83S, L103V, I104F, S117T
VL: B8 VL with D7G, D25N, S29F, K38R, V44I, G49D, N95Y, H96Y, V97M, V98I
notes: as for B1
B11: BKO-4A8-104c (antibody, human IgG4 S228P, lambda, V domains shown)
VH: B3 VH with Y27F, T30S, M34Q, A40P, T49S, R54S, R57S, L100K, N102Y
VL: B1 VL with T23I, F51Y
notes: IgG4 S228P, lambda
B12: BKO-4A8-105c (antibody, human IgG4 S228P, lambda, V domains shown)
VH: B3 VH with Y27F, T30S, M34Q, A40P, T49S, R54S, R57S, L100A, N102Y
VL: B1 VL with T23I, F51Y
notes: IgG4 S228P, lambda
B13: BKO-4A8-103c (antibody, human IgG4 S228P, lambda, V domains shown)
VH: B3 VH with Y27F, T30S, M34Q, A40P, T49S, R54S, R57S, L100M, N102Y
VL: B1 VL with T23I, F51Y
notes: IgG4 S228P, lambda
B14: BKO-4A8 combinatorial variant 102c (antibody, human IgG4 S228P, lambda, V domains shown)
VH: B3 VH with Y27F, T30S, M34Q, A40P, T49S, G56R, R57S, L100E, N102Y
VL: B1 VL with T23I, F51Y
notes: IgG4 S228P, lambda
B15: BKO-4A8 combinatorial variant 106c (antibody, human IgG4 S228P, lambda, V domains shown)
VH: B3 VH with Y27F, T30S, M34Q, A40P, T49S, R54S, R57S, L100E, N102Y
VL: B1 VL with T23I, F51Y
notes: IgG4 S228P, lambda

Molecular target: T1, human CXCR2
Assay: flow cytometry, transfected Expi293F cells
Description: (§1) Harvested cells were resuspended in FACS buffer (1×PBS+0.5% (w/v) bovine serum albumin (BSA)+2 mM EDTA pH 7.2). Approximately 2×10⁵ cells were added per well in a 96-well round-bottomed plate. Cells were pelleted by centrifugation at 400 g for 5 mins at 4° C. and supernatants discarded. 25 μL of each test antibody or control antibody was added to the cells and incubated for 30 minutes at 4° C. Cells were washed twice in 100 μL FACS buffer followed by centrifugation at 400 g for 5 mins at 4° C.
(§2) For detection, 50 μL of secondary antibody (Table 2) was added to relevant samples. Commercially available antibodies that bound to transfected CXCR family members were used as positive controls to ensure that the cells were expressing the receptors. Cells were washed twice in 200 μL of FACS buffer followed by centrifugation at 400 g for 5 mins at 4° C. Before sample acquisition, cells were resuspended in 100 μL of FACS buffer. Samples were acquired using the high throughput sampler on a FACSCanto™ II cytometer (Beckton-Dickinson).
(§3) These antibody variable regions were then generated by gene synthesis and subcloned into mammalian expression vectors as described in General Methods. Antibodies were produced by co-expression of heavy and light chain plasmids in Expi293F™ cells and purified by protein A column chromatography as described in General Methods. Where several heavy and/or light chains were identified from the same hybridoma cells, each heavy chain was paired with each light chain and the resulting antibodies given suffix a, b, c, etc. Purified antibodies were desalted into Sorensen's PBS pH 5.8 and tested by flow cytometry for binding to Expi293F™ cells transfected with human CXCR2 or human CXCR1 and mock transfected Expi293F™ cells.

| binding result | Binder |
| --- | --- |
| binds | B1 |
| binds | B2 |
| binds | B3 |
| binds | B4 |
| binds | B5 |
| binds | B6 |
| binds | B7 |
| binds | B8 |
| binds | B9 |
| binds | B10 |

Molecular target: T2, human CXCR1
Assay: flow cytometry, transfected Expi293F cells
Description: as §1, §2, §3

| binding result | Binder |
| --- | --- |
| no binding | B1 |
| no binding | B2 |
| no binding | B3 |
| no binding | B4 |
| no binding | B5 |
| no binding | B6 |
| no binding | B7 |
| no binding | B8 |
| no binding | B9 |
| no binding | B10 |

Molecular target: T1, human CXCR2
Assay: cell-based or functional assay

| CXCL1 Fold Improvement over 4A8 WT [fold] | CXCL1 IC50, Tango assay [nM] | CXCL8 Fold Improvement over 4A8 WT [fold] | CXCL8 IC50, Tango assay [nM] | Binder |
| --- | --- | --- | --- | --- |
| 0.43 | 2.17 | 0.88 | 0.75 | B11 |
| 0.24 | 4 | 0.36 | 1.85 | B12 |
| 2.55 | 2.4 | 0.53 | 1.25 | B13 |

Molecular target: T1, human CXCR2
Assay: flow cytometry, CXCR2-transfected Expi293F cells
Description: as §1, §2
A further six heavy chain combinational variants comprising four or more amino acid substitutions were produced as provided in Table 12. […] Each heavy chain was co-expressed with light chain c (SEQ ID NO:110) to produce an antibody variant. Antibodies were purified and tested for CXCR2 binding activity as described in General Methods.

| EC50 [nM] | Max binding (MFI Percent of 4A8 WT) [%] | Max binding (MFI) | Binder |
| --- | --- | --- | --- |
| 8.7 | 53 | 33000 | B14 |
| > 100 |  | 11600 | B15 |
| 6.45 | 54 | 45100 | B11 |
| 5.73 | 52 | 42700 | B12 |
| 5.15 | 72 | 44400 | B13 |
